Results as given in patent US20120114667A1.

Target: avb3 and avb5 integrins on A375M cells
Assay: cell-based or functional assay

Osteopontin Adhesion (% inhibition) at 5 ug/ml, A375M cells | Vitronectin Adhesion (% inhibition) at 5 ug/ml, A375M cells | Binder
3% | 10% | 3C5 (antibody, IgG2, V domains shown) VH: RVQLQESGPGLVKPSQTLSLTCTVSGGSIISGGYFWTWIRQHPGKGLEWIGYIYYSGSTYYSPSLKSRVTISVDTSKNQFSLKLSSVTAADTAVYYCTRAVPAAKGYYSYYGMDVWGQGTTVTVSS VL: DIVMTQSPLSLPVTPGEPASISCRSSQSLLHSSGYNYLDWFLQKPGQSPQLLIYLSSNRASGVPDRFSGSGSGTDFTLKISRVEAEDVGVYYCMQALQTPFTFGPGTKVDIK
13% | 9% | 5B11 (antibody, IgG2, V domains shown) VH: QVQLVESGGGVVQPGRSVRLSCAASGFTFSSYGMHWVRQTPGKGLEWVAIIWYDGGIEYYADSVKGRFTISRDNSKNTLYLQMNSLRAEDTAVYYCARDHRYGSSWFDYWGQGTLVTVSS VL: DIQMTQSPSSLSASVGDRVTITCRASQGINNYLAWFQQKPGKAPKSLIYAASSLQSGVPSNFSGSGSGTDFTLSISSLQPEDFATYYCQQYKSYPLTFGGGTKVEIR
